# Reference: patent US20200199244A1 (published 2020)
# Changes are numbered by the printed parent chain. Values joined by “and” are separate entries in the source; they are usually repeats but may differ in a detail not shown here. Equal entries are not always repeated.
# T1: human CD40 (H76R, W109L, L121P) Fc fusion (human)
# T1 construct: As m1 with H76R, W109L and L121P; also called hCD40-M5; not shown: human IgG1 Fc
# T1 chain: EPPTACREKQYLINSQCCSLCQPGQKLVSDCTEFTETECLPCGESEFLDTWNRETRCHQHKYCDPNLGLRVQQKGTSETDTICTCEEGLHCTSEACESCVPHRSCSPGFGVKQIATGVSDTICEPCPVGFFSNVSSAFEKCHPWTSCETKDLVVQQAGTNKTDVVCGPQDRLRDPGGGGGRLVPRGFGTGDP
# T2: wild type cynomolgus monkey CD40 Fc fusion (cynomolgus monkey; human)
# T2 construct: also called wt-cyno-CD40; wt-cCD40; not shown: human IgG1 Fc
# T2 chain: T1 chain with A95S, S106L, H142R, L172Q
# B1: BMS3h-217-16 (other)
# VL: DIQMTQSPSSLSASVGDRVTITCRASHFIGTLLSWYQQKPRKAPKLLITYGSLLQSGVPSRFSGSGSGTDFTLTISSLQPEDFATYYCGQGVLWPPTFGQGTKVEIKR
# notes: domain antibody (dAb), single VK domain
# B2: BMS3h-217-23 (other)
# VL: B1 VL with T31S, Q38V, R41G, P96A, K103T
# notes: as for B1
# B3: BMS3h-217-5 (other)
# VL: B1 VL with S10F, G30A, R41G
# notes: as for B1
# B4: BMS3h-198-1 (other)
# VH: EVQLLESGGGLVQPGGSLRLSCAASGSTIAGYEMWWVRQAPGKGLERVSAISGSGGSTYYADSVKGRFTISRDDSKNTLYLQMNSLRAEDTAVYYCARDPYSFDYWGQGTLVTVSS
# notes: Domain antibody (dAb), single human VH domain
# B5: BMS3h-131-2 (other)
# VL: DIQMTQSPSSLSASVGDRVTITCRADSSILWALAWYQQKPGKAPKLLIESSSGLQSGVPSRFSGSGSGTDFTLTISSLQPEDFATYYCVQNAVWPGTFGQGTKVEIKR
# notes: Domain antibody (dAb), single human V kappa domain
# B6: BMS3h-202-11 (other)
# VH: EVQLLESGGGLVQPGGSLRLSCAASGFTFPTAEMLWVRKAPGKGLEWVSSISASGGSTYYADSVKGRFTISRDNSKNTLYLQMNSLRAEDAAVYYCAKEPVSYVATFDYWGQGTLVTVSS
# notes: as for B4
# B7: BMS3h-37-11 (other)
# VH: EVQLLESGGGLVQPGGSLRLSCAASGFTFEWYEMQWVRKAPGKGLEWVSAISGDGYRTYYADSVKGRFTISRDNSKNTLYLQMNSLRAEDTAVYYCAKELGYFDYRGRGTLVTVSS
# notes: as for B4
# B8: BMS3h-43-3 (other)
# VH: EVQLLESGGGLVQPGGSLRLSCTASGFTFNMYEMSWVRQAPGKGLEWVSGISRRGFTTYYADSVKGRFTISRDNFKNTLYLQMNSLRAEDTAVYYCAKEPITYDMRYARFDYGGQGTLVTVSS
# notes: as for B4
# B9: BMS3h-41-13 (other)
# VH: EVQLLESAGGLVQPGGSLRLSCAASGFTFAEYEMIWVRQAPGKGLEWVSSISGNGANTYYADSVKGRFTISRDNSKNTLYLQMNSLRAEDTAVYYCAKEPLRFDYWGQGALVTVSS
# notes: as for B4
# B10: BMS3h-193-12 (other)
# VL: DIQMTQSPSSLSASVGDRVTITCRASQTIERRLNWYQQKPGKAPKLLIYLASRLQSGVPSRFSGSGSGTDFTLTISSLQPEDFATYYCHQYESPPLTFGQGTKVEIKR
# notes: as for B5
# B11: BMS3h-217 (other)
# VL: B1 VL with R41G, P96A
# notes: as for B5
# B12: BMS3h-106 (other)
# VH: EVQLLESGGGLVQPGGSLRLSCAASGFTFSTYHMQWVRQAPGKGLEWVSMIDADGLGTYYADSVKGRFTISRDNSKNTLYLQMNSLRAEDTAVYYCAKPGPQFGQFDYWGQGTLVTVSS
# notes: as for B4
# B13: BMS3h-107 (other)
# VH: EVQLLESGGGLVQPGGSLRLSCAASGFTFSGYDMQWVRQAPGKGLEWVSTISASGVFTYYADSVKGRFTTSRDNSKNTLYLQMNSLRAEDTAVYYCAKYPNRFALNNFDYWGQGTLVTVSS
# notes: as for B4
# B14: BMS3h-43-1 (other)
# VH: B8 VH with F75S, M105L, G113S
# notes: as for B4
# B15: BMS3h-41-9 (other)
# VH: B9 VH with S7P, A8G, A30T, Q39K, L45M, A88P, Y105D, A110T
# notes: as for B4
# B16: BMS3h-38-2 (other)
# VH: EVQLLASGGGLVQPGGSLRLSCAASGFTFEEEEMIWVRQAPGKGLEWVSAISGSGGSTYYADSVKGRFTISRDNSKNTLYLQMNSLRAEDTAVYYCGKEPFRYDYWGQGTLVTVSS
# notes: as for B4
# Target: T3, human CD40 (H76R) Fc fusion (human, UniProt P25942 21-193)
# T3 construct: As m1 with H76R; also called hCD40-M1; not shown: human IgG1 Fc
# Assay: SPR ProteOn XPR36, CD40-Fc captured, dAb analyte
# Method: (§1) Assays were performed on a BioRad ProteOn XPR36 SPR instrument. The SPR surfaces were prepared by immobilizing 8 μg/ml anti-human IgG(Fc) antibody (Biacore/GE Healthcare) in 10 mM sodium acetate pH 4.5 on a BioRad GLC sensor chip using standard ethyl(dimethylaminopropyl) carbodiimide (EDC)/N-hydroxysuccinimide (NHS) chemistry, with ethanolamine blocking. The running buffer for immobilization and kinetic binding analysis was 10 mM sodium phosphate, 130 mM sodium chloride, 0.05% tween 20, pH 7.1. CD40-Fc fusion proteins at concentrations of 20 μg/ml were captured in the vertical orientation on these surfaces via the Fc tail, and reference surfaces lacking CD40-Fc proteins were used for reference subtraction. […] The surfaces were regenerated in both horizontal and vertical orientations with 30 s pulses of 3 M MgCl₂ followed by running buffer at 60 μl/min. Sensogram data was double-referenced and then fitted to a 1:1 Langmuir model using BioRad ProteOn Manager V.2.1.0.38 software, to determine the association rate constant (ka), the dissociation rate constant (kd), and the equilibrium dissociation constant (KD).
row,Binder,Kd [nM]
1,B1,0.35
2,B2,1.6
3,B3,0.94

# Target: T4, human CD40 (W109L) Fc fusion (human, UniProt P25942 21-193)
# T4 construct: As m1 with W109L; also called hCD40-M2; not shown: human IgG1 Fc
# Assay: SPR ProteOn XPR36, CD40-Fc captured, dAb analyte
row,Binder,Kd [nM]
1,B1,0.41
2,B2,2
3,B3,0.99

# Target: T5, human CD40 (W109L, L121P) Fc fusion (human, UniProt P25942 21-193)
# T5 construct: As m1 with W109L and L121P; also called hCD40-M4; not shown: human IgG1 Fc
# Assay: SPR ProteOn XPR36, CD40-Fc captured, dAb analyte
row,Binder,Kd [nM]
1,B1,0.35
2,B2,1.6
3,B3,0.93

# Target: T6, human CD40 (W109R) Fc fusion (Chimpanzee CD40) (human, UniProt P25942 21-193)
# T6 construct: As m1 with W109R (residue of chimpanzee CD40); also called hCD40-M3; not shown: human IgG1 Fc
# Assay: SPR ProteOn XPR36, CD40-Fc captured, dAb analyte
row,Binder,Kd [nM]
1,B1,0.27
2,B2,1.2
3,B3,0.72

# Target: T1, human CD40 (H76R, W109L, L121P) Fc …
# Assay: SPR ProteOn XPR36, CD40-Fc captured, dAb analyte
# Method: as §1
row,Binder,Kd [nM]
1,B1,0.5
2,B2,2.2
3,B3,1

# Target: T7, wild type human CD40 Fc fusion (human, UniProt P25942 21-193)
# T7 construct: also called wt-hCD40; not shown: human IgG1 Fc
# Assay: SPR ProteOn XPR36, CD40-Fc captured, dAb analyte
row,Binder,Kd
1,B1,0.22 nM and 0.26 nM
2,B2,0.78 nM and 1.5 nM
3,B3,0.47 nM and 0.48 nM

# Target: T2, wild type cynomolgus monkey CD40 Fc …
# Assay: SPR ProteOn XPR36, CD40-Fc captured, dAb analyte
# Method: as §1
row,Binder,Kd [nM]
1,B1,0.4
2,B2,1.9
3,B3,0.9

# Target: T8, biotinylated human CD40 (human, UniProt P25942 21-193, limits assumed, biotinylated (sites not given))
# T8 construct: Biotinylated human CD40 (supplied by BMS), about 600 RU immobilised on a streptavidin BIAcore chip; also called hCD40
# Assay: SPR, BIAcore 3000 COINJECT over biotinylated human CD40; mixture after first injection; competitor BMS3h-37-11
row,Binder,Second Injection (% of single dAb RU) [%]
1,B4,16
2,B5,25
3,B6,0.3

# Target: T8, biotinylated human CD40
# Assay: SPR, BIAcore 3000 COINJECT over biotinylated human CD40; mixture after first injection; competitor BMS3h-131-2
# Method: (§2) A BIAcore™ 3000 instrument (GE Healthcare) was used to analyze whether CD40-specific dAbs bound the same CD40 epitope. […] A second flow-cell without any ligand immobilized served as a reference flow-cell for inline referencing. An appropriate dilution of each dAb or Fab to be analyzed was prepared in HBS-EP buffer (0.01 M HEPES pH 7.4 with 0.15 M NaCl, 3 mM EDTA and 0.005% v/v Surfactant P20, GE Healthcare). […] Next, a mixture of the same dAb or Fab as above (at the same final concentration) was prepared with a second dAb or Fab to be analyzed for competition. The COINJECT function of the instrument was used to inject 60 μl of the single-inhibitor dilution across the CD40-immobilized and reference flow-cells in series, followed immediately by a 60 μl injection of the two-inhibitor mixture. Inline subtraction of the signal from the reference cell was performed by the instrument's control software. The experiment was performed at 25° C. and a flow rate of 30 μl/min of HBS-EP. […] The maximum RU obtained for the second injection (the mixture of the two inhibitors) was noted and expressed as a percentage of the RU obtained for the same inhibitor when injected alone.
row,Binder,Second Injection (% of single dAb RU) [%]
1,B7,-3.7
2,B4,23.2
3,B6,10.3

# Target: T8, biotinylated human CD40
# Assay: SPR, BIAcore 3000 COINJECT over biotinylated human CD40; mixture after first injection; competitor BMS3h-198-1
# Method: as §2
row,Binder,Second Injection (% of single dAb RU) [%]
1,B7,6.4
2,B5,41
3,B6,18

# Target: T8, biotinylated human CD40
# Assay: SPR, BIAcore 3000, 5 µM dAb alone over biotinylated human CD40
# Method: as §2
row,Binder,Single dAb RU [RU]
1,B8,300
2,B9,162
3,B10,282

# Target: T8, biotinylated human CD40
# Assay: SPR, BIAcore 3000, 10 µM dAb alone over biotinylated human CD40
# Method: as §2
row,Binder,Single dAb RU [RU]
1,B11,85
2,B12,165
3,B13,35

# Target: T8, biotinylated human CD40
# Assay: SPR, BIAcore 3000 COINJECT over biotinylated human CD40; mixture after first injection; competitor BMS3h-56-5
# Method: as §2
row,Binder,Second Injection (% of single dAb RU) [%]
1,B14,22
2,B15,0
3,B16,4

# Target: T8, biotinylated human CD40
# Assay: SPR, BIAcore 3000 COINJECT over biotinylated human CD40; mixture after first injection; competitor BMS3h-202-11
# Method: as §2
row,Binder,Second Injection (% of single dAb RU) [%]
1,B7,42
2,B4,39
3,B5,57

# Target: T8, biotinylated human CD40
# Assay: SPR, BIAcore 3000, dAb injected alone over biotinylated human CD40 on SA chip
# Method: as §2
row,Binder,RU first dAb alone [RU]
1,B14,210
2,B15,150
3,B16,170

# Target: T8, biotinylated human CD40
# Assay: SPR, BIAcore 3000 COINJECT over biotinylated human CD40; mixture after first injection; competitor BMS3h-56-5
# Remark: another data set of the same source
# Method: as §2
row,Binder,Second Injection (% of single dAb RU) [%]
1,B7,-15
2,B4,0.6
3,B5,17
4,B6,7.3

# Target: T8, biotinylated human CD40
# Assay: SPR, BIAcore 3000, dAb injected alone over biotinylated human CD40 on SA chip
# Remark: another data set of the same source
# Method: as §2
row,Binder,RU first dAb alone [RU]
1,B7,158
2,B4,176
3,B5,220
4,B6,124
